Measured values reported in patent publication US20230250154A1 (CYTONICS, published 2023).

T1: Cathepsin G (UniProt P08311 21-244)
T1 sequence (looked up): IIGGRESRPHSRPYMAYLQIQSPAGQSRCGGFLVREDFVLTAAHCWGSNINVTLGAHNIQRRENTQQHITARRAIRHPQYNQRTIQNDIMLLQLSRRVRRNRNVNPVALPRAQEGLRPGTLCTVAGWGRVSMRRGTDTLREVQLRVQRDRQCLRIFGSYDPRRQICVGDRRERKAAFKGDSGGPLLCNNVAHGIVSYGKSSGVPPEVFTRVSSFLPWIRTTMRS

B1: Variant A2M, bait region SEQ ID NO 137 (other)
chain: SVSGKPQYMVLVPSLLHTETTEKGCVLLSYLNETVTVSASLESVRGNRSLFTDLEAENDVLHCVAFAVPKSSSNEEVMFLTVQVKGPTQEFKKRTTVMVKNEDSLVFVQTDKSIYKPGQTVKFRVVSMDENFHPLNELIPLVYIQDPKGNRIAQWQSFQLEGGLKQFSFPLSSEPFQGSYKVVVQKKSGGRTEHPFTVEEFVLPKFEVQVTVPKIITILEEEMNVSVCGLYTYGKPVPGHVTVSICRKYSDASDCHGEDSQAFCEKFSGQLNSHGCFYQQVKTKVFQLKRKEYEMKLHTEAQIQEEGTVVELTGRQSSEITRTITKLSFVKVDSHFRQGIPFFGQVRLVDGKGVPIPNKVIFIRGNEANYYSNATTDEHGLVQFSINTTNVMGTSLTVRVNYKDRSPCYGYQWVSEEHEEAHHTAYLVFSPSKSFVHLEPMSHELPCGHTQTVQAHYILNGGTLLGLKKLSFYYLIMAKGGIVRTGTHGLLVKQEDMKGHFSISIPVKSDIAPVARLLIYAVLPTGDVIGDSAKYDVENCLANKVDLSFSPSQSLPASHAHLRVTAAPQSVCALRAVDQSVLLMKPDAELSASSVYNLLPEKDLTGFPGPLNDQDDEDCINRHNVYINGITYTPVSSTNEKDMYSFLEDMGLKAFTNSKIRKPKMCPQLEQYEMHGPSEDLVVQIKEEEGLGSIPENFFGVSELEGRGSVEEPHTKLRKYFPETWIWDLVVVNSAGVAEVGVTVPDTITEWKAGAFCLSEDAGLGISSTASLRAFQPFFVELTMPYSVIRGEAFTLKATVLNYLPKCIRVSVQLEASPAFLAVPVEKEQAPHCICANGRQTVSWAVTPKSLGNVNFTVSAEALESQELCGTEVPSVPEHGRKDTVIKPLLVEPEGLEKETTFNSLLCPSGGEVSEELSLKLPPNVVEESARASVSVLGDILGSAMQNTQNLLQMPYGCGEQNMVLFAPNIYVLDYLNETQQLTPEIKSKAIGYLNTGYQRQLNYKHYDGSYSTFGERYGRNQGNTWLTAFVLKTFAQARAYIFIDEAHITQALIWLSQRQKDNGCFRSSGSLLNNAIKGGVEDEVTLSAYITIALLEIPLTVTHPVVRNALFCLESAWKTAQEGDHGSHVYTKALLAYAFALAGNQDKRKEVLKSLNEEAVKKDNSVHWERPQKPKAPVGHFYEPQAPSAEVEMTSYVLLAYLTAQPAPTSEDLTSATNIVKWITKQQNAQGGFSSTQDTVVALHALSKYGAATFTRTGKAAQVTIQSSGTFSSKFQVDNNNRLLLQQVSLPELPGEYSMKVTGEGCVYLQTSLKYNILPEKEEFPFALGVQTLPQTCDEPKAHTSFQISLSVSYTGSRSASNMAIVDVKMVSGFIPLKPTVKMLERSNHVSRTEVSSNHVLIYLDKVSNQTLSLFFTVLQDVPVRDLKPAIVKVYDYYETDEFAIAEYNAPCSKDLGNADYKDDDDKGASHHHHHH
B2: Variant A2M, bait region SEQ ID NO 141 (other)
chain: SVSGKPQYMVLVPSLLHTETTEKGCVLLSYLNETVTVSASLESVRGNRSLFTDLEAENDVLHCVAFAVPKSSSNEEVMFLTVQVKGPTQEFKKRTTVMVKNEDSLVFVQTDKSIYKPGQTVKFRVVSMDENFHPLNELIPLVYIQDPKGNRIAQWQSFQLEGGLKQFSFPLSSEPFQGSYKVVVQKKSGGRTEHPFTVEEFVLPKFEVQVTVPKIITILEEEMNVSVCGLYTYGKPVPGHVTVSICRKYSDASDCHGEDSQAFCEKFSGQLNSHGCFYQQVKTKVFQLKRKEYEMKLHTEAQIQEEGTVVELTGRQSSEITRTITKLSFVKVDSHFRQGIPFFGQVRLVDGKGVPIPNKVIFIRGNEANYYSNATTDEHGLVQFSINTTNVMGTSLTVRVNYKDRSPCYGYQWVSEEHEEAHHTAYLVFSPSKSFVHLEPMSHELPCGHTQTVQAHYILNGGTLLGLKKLSFYYLIMAKGGIVRTGTHGLLVKQEDMKGHFSISIPVKSDIAPVARLLIYAVLPTGDVIGDSAKYDVENCLANKVDLSFSPSQSLPASHAHLRVTAAPQSVCALRAVDQSVLLMKPDAELSASSVYNLLPEKDLTGFPGPLNDQDDEDCINRHNVYINGITYTPVSSTNEKDMYSFLEDMGLKAFTNSKIRKPKMCPQLEQYEMHGPEAIPMSIPTSELEGRGSIPENFFGVEGEGEGEGEPHTKLRKYFPETWIWDLVVVNSAGVAEVGVTVPDTITEWKAGAFCLSEDAGLGISSTASLRAFQPFFVELTMPYSVIRGEAFTLKATVLNYLPKCIRVSVQLEASPAFLAVPVEKEQAPHCICANGRQTVSWAVTPKSLGNVNFTVSAEALESQELCGTEVPSVPEHGRKDTVIKPLLVEPEGLEKETTFNSLLCPSGGEVSEELSLKLPPNVVEESARASVSVLGDILGSAMQNTQNLLQMPYGCGEQNMVLFAPNIYVLDYLNETQQLTPEIKSKAIGYLNTGYQRQLNYKHYDGSYSTFGERYGRNQGNTWLTAFVLKTFAQARAYIFIDEAHITQALIWLSQRQKDNGCFRSSGSLLNNAIKGGVEDEVTLSAYITIALLEIPLTVTHPVVRNALFCLESAWKTAQEGDHGSHVYTKALLAYAFALAGNQDKRKEVLKSLNEEAVKKDNSVHWERPQKPKAPVGHFYEPQAPSAEVEMTSYVLLAYLTAQPAPTSEDLTSATNIVKWITKQQNAQGGFSSTQDTVVALHALSKYGAATFTRTGKAAQVTIQSSGTFSSKFQVDNNNRLLLQQVSLPELPGEYSMKVTGEGCVYLQTSLKYNILPEKEEFPFALGVQTLPQTCDEPKAHTSFQISLSVSYTGSRSASNMAIVDVKMVSGFIPLKPTVKMLERSNHVSRTEVSSNHVLIYLDKVSNQTLSLFFTVLQDVPVRDLKPAIVKVYDYYETDEFAIAEYNAPCSKDLGNADYKDDDDKGASHHHHHH
B3: Variant A2M, bait region SEQ ID NO 143 (other)
chain: SVSGKPQYMVLVPSLLHTETTEKGCVLLSYLNETVTVSASLESVRGNRSLFTDLEAENDVLHCVAFAVPKSSSNEEVMFLTVQVKGPTQEFKKRTTVMVKNEDSLVFVQTDKSIYKPGQTVKFRVVSMDENFHPLNELIPLVYIQDPKGNRIAQWQSFQLEGGLKQFSFPLSSEPFQGSYKVVVQKKSGGRTEHPFTVEEFVLPKFEVQVTVPKIITILEEEMNVSVCGLYTYGKPVPGHVTVSICRKYSDASDCHGEDSQAFCEKFSGQLNSHGCFYQQVKTKVFQLKRKEYEMKLHTEAQIQEEGTVVELTGRQSSEITRTITKLSFVKVDSHFRQGIPFFGQVRLVDGKGVPIPNKVIFIRGNEANYYSNATTDEHGLVQFSINTTNVMGTSLTVRVNYKDRSPCYGYQWVSEEHEEAHHTAYLVFSPSKSFVHLEPMSHELPCGHTQTVQAHYILNGGTLLGLKKLSFYYLIMAKGGIVRTGTHGLLVKQEDMKGHFSISIPVKSDIAPVARLLIYAVLPTGDVIGDSAKYDVENCLANKVDLSFSPSQSLPASHAHLRVTAAPQSVCALRAVDQSVLLMKPDAELSASSVYNLLPEKDLTGFPGPLNDQDDEDCINRHNVYINGITYTPVSSTNEKDMYSFLEDMGLKAFTNSKIRKPKMCPQLEQYEMHGPIPENFFGVSEDLVVQIEGEGEGEGEAIPMSIPTEPHTKLRKYFPETWIWDLVVVNSAGVAEVGVTVPDTITEWKAGAFCLSEDAGLGISSTASLRAFQPFFVELTMPYSVIRGEAFTLKATVLNYLPKCIRVSVQLEASPAFLAVPVEKEQAPHCICANGRQTVSWAVTPKSLGNVNFTVSAEALESQELCGTEVPSVPEHGRKDTVIKPLLVEPEGLEKETTFNSLLCPSGGEVSEELSLKLPPNVVEESARASVSVLGDILGSAMQNTQNLLQMPYGCGEQNMVLFAPNIYVLDYLNETQQLTPEIKSKAIGYLNTGYQRQLNYKHYDGSYSTFGERYGRNQGNTWLTAFVLKTFAQARAYIFIDEAHITQALIWLSQRQKDNGCFRSSGSLLNNAIKGGVEDEVTLSAYITIALLEIPLTVTHPVVRNALFCLESAWKTAQEGDHGSHVYTKALLAYAFALAGNQDKRKEVLKSLNEEAVKKDNSVHWERPQKPKAPVGHFYEPQAPSAEVEMTSYVLLAYLTAQPAPTSEDLTSATNIVKWITKQQNAQGGFSSTQDTVVALHALSKYGAATFTRTGKAAQVTIQSSGTFSSKFQVDNNNRLLLQQVSLPELPGEYSMKVTGEGCVYLQTSLKYNILPEKEEFPFALGVQTLPQTCDEPKAHTSFQISLSVSYTGSRSASNMAIVDVKMVSGFIPLKPTVKMLERSNHVSRTEVSSNHVLIYLDKVSNQTLSLFFTVLQDVPVRDLKPAIVKVYDYYETDEFAIAEYNAPCSKDLGNADYKDDDDKGASHHHHHH

What follows are binders tested against T1, Cathepsin G (assay: cell-based or functional assay).

With B1 as the binder, how does the “Protease Inhibition (% of WT)” value read?
The value was 450 % of WT.

B2 was tested. Which “Protease Inhibition (% of WT)” value did it give?
Its value is 100 % of WT.

How did the “Protease Inhibition (% of WT)” value turn out when B3 was run?
The value was 350 % of WT.

Each binder was assayed against Elastase (assay: cell-based or functional assay).

B1 was tested. Which “Protease Inhibition (% of WT)” value did it give?
The value was 100 % of WT.

Which “Protease Inhibition (% of WT)” value does the source give for B2 here?
Its value is 75 % of WT.

With B3 as the binder, how does the “Protease Inhibition (% of WT)” value read?
The value was 250 % of WT.
